Experimental data reported in US20180263964A1 (MINERVA BIOTECHNOLOGIES, published 2018).

B1: full-length NME7, 42 kDa (other, UniProt Q9Y5B8 1-376, looked up)
chain: MNHSERFVFIAEWYDPNASLLRRYELLFYPGDGSVEMHDVKNHRTFLKRTKYDNLHLEDLFIGNKVNVFSRQLVLIDYGDQYTARQLGSRKEKTLALIKPDAISKAGEIIEIINKAGFTITKLKMMMLSRKEALDFHVDHQSRPFFNELIQFITTGPIIAMEILRDDAICEWKRLLGPANSGVARTDASESIRALFGTDGIRNAAHGPDSFASAAREMELFFPSSGGCGPANTAKFTNCTCCIVKPHAVSEGLLGKILMAIRDAGFEISAMQMFNMDRVNVEEFYEVYKGVVTEYHDMVTEMYSGPCVAMEIQQNNATKTFREFCGPADPEIARHLRPGTLRAIFGKTKIQNAVHCTDLPEDGLLEVQYFFKILDN
notes: Endogenous 42 kDa protein in cell lysates; also called native NME7
B2: NME7AB (ligand)
chain: MEKTLALIKPDAISKAGEIIEIINKAGFTITKLKMMMLSRKEALDFHVDHQSRPFFNELIQFITTGPIIAMEILRDDAICEWKRLLGPANSGVARTDASESIRALFGTDGIRNAAHGPDSFASAAREMELFFPSSGGCGPANTAKFTNCTCCIVKPHAVSEGLLGKILMAIRDAGFEISAMQMFNMDRVNVEEFYEVYKGVVTEYHDMVTEMYSGPCVAMEIQQNNATKTFREFCGPADPEIARHLRPGTLRAIFGKTKIQNAVHCTDLPEDGLLEVQYFFKILDN
notes: In the co-immunoprecipitations and Western blots this is the endogenous 33 kDa species of cell lysates; also called human NME7-AB; 33 kDa NME7-reactive species
B3: NME7-X1 (ligand)
chain: MMMLSRKEALDFHVDHQSRPFFNELIQFITTGPIIAMEILRDDAICEWKRLLGPANSGVARTDASESIRALFGTDGIRNAAHGPDSFASAAREMELFFPSSGGCGPANTAKFTNCTCCIVKPHAVSEGLLGKILMAIRDAGFEISAMQMFNMDRVNVEEFYEVYKGVVTEYHDMVTEMYSGPCVAMEIQQNNATKTFREFCGPADPEIARHLRPGTLRAIFGKTKIQNAVHCTDLPEDGLLEVQYFFKILDN
notes: Alternative splice isoform of NME7; In the blots it is the endogenous 30 kDa species of cell lysates; also called human NME7-X1; 30 kDa NME7-reactive species

Tests used:
[1] = molecular target: T1, full-length MUC1 (human, UniProt P15941 24-1255, limits assumed); assay: co-immunoprecipitation with Ab5 from human iPS and HES cell lysates, Western blot for NME7
T1 construct: also called full-length MUC1 Receptor; Mucin 1 precursor

[2] = molecular target: T1, full-length MUC1; assay: co-immunoprecipitation gel stripped and re-probed with an anti-MUC1* (PSMGFR) antibody

T1 sequence (P15941 other isoform, or with tags, fused parts or gaps limits assumed): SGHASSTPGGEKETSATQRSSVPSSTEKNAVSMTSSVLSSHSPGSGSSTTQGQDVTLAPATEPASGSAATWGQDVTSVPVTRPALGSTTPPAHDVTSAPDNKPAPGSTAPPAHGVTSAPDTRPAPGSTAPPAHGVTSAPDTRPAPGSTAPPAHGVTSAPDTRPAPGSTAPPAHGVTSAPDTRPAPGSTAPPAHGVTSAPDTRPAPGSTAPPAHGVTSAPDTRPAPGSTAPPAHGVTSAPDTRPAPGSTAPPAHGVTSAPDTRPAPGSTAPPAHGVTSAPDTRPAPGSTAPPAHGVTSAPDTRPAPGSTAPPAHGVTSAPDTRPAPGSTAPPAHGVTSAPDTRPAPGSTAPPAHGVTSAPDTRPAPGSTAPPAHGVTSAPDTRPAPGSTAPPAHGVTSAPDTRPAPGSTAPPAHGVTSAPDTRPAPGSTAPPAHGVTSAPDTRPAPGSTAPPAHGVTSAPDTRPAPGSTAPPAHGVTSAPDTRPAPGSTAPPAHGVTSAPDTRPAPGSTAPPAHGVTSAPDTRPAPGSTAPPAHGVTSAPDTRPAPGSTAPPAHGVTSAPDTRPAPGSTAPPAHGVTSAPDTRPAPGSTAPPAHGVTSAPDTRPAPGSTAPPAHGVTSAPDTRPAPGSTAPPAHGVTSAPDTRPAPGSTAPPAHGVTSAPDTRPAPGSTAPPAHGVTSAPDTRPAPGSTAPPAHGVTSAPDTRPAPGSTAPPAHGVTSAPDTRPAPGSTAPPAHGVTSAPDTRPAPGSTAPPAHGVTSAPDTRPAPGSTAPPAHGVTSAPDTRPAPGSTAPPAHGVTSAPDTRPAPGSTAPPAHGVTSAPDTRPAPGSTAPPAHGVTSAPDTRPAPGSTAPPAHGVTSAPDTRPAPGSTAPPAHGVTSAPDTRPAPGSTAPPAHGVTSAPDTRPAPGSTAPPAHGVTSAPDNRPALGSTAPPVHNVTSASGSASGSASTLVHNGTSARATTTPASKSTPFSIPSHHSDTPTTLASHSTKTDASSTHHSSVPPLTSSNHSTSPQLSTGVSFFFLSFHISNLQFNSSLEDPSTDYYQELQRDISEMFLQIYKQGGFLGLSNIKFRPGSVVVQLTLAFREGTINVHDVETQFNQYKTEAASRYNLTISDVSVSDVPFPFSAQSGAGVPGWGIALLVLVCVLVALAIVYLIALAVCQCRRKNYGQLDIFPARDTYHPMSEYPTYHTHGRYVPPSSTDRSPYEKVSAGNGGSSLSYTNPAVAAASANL

Binder | binding result [1] | binding result [2]
B1 | no binding | –
B2 | – | no binding
B3 | – | no binding
